Test results as given in US20190085040A1.

How the values were obtained:
[1] = target: transient receptor potential vanilloid 1 (TRPV1), rat, in primary neonatal cardiomyocytes (rat) (UniProt O35433); assay: cell-based or functional assay
Chain of transient receptor potential vanilloid 1 (TRPV1), rat, in primary neonatal cardiomyocytes (rat) (O35433 whole entry): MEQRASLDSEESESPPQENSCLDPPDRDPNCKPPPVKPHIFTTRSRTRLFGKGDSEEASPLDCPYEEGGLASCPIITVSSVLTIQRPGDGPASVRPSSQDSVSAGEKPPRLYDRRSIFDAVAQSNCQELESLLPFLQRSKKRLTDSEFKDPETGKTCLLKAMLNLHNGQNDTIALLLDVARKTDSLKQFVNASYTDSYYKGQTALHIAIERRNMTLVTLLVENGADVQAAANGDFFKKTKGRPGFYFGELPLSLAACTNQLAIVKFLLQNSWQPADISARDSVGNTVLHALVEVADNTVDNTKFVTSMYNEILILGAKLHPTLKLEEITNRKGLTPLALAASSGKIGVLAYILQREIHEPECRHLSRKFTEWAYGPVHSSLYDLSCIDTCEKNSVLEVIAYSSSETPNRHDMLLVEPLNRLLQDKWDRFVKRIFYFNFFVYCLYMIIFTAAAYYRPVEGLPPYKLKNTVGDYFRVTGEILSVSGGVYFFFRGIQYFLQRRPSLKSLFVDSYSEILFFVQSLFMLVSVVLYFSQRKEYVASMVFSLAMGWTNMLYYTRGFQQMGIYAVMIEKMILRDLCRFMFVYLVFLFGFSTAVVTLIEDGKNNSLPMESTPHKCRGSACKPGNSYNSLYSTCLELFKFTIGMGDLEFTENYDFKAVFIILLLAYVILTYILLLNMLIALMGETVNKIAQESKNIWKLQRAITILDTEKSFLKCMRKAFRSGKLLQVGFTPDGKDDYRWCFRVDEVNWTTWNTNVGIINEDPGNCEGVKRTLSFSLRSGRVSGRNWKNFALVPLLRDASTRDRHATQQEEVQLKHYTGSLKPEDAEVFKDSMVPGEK

How did the fold decrease in negative change in mitochondrial membrane potential caused by capsaicin (1 µM) in primary neonatal cardiomyocytes, with V1-cal (1 µM) given 10 minutes before [1] turn out when “calcineurin, endogenous in rat primary neonatal cardiomyocytes (enzyme)” was run?
Its fold decrease in negative change in mitochondrial membrane potential caused by capsaicin (1 µM) in primary neonatal cardiomyocytes, with V1-cal (1 µM) given 10 minutes before is 10 fold.

For recombinant calcineurin, which “calcineurin activity by free phosphate release from a calcineurin substrate (colorimetric, peptide at 10 µM, against TAT at 10 µM)” value (V1-cal) is on record?
The value was “In comparison to TAT, V1-cal reduced the ability for calcineurin to dephosphorylate a calcineurin substrate as measured by free phosphate release in vitro”.
